Laboratory results taken from PMC10841842, “Single-molecule quantitation of RNA-binding protein occupancy and stoichiometry defines a role for Yra1 (Aly/REF) in nuclear mRNP organization” (Cell reports, 2023).

B1: Hpr1-mNG (natural protein, S. cerevisiae, UniProt P17629 1-752, looked up)
chain: MSNTEELIQNSIGFLQKTFKALPVSFDSIRHEPLPSSMLHASVLNFEWEPLEKNISAIHDRDSLIDIILKRFIIDSMTNAIEDEEENNLEKGLLNSCIGLDFVYNSRFNRSNPASWGNTFFELFSTIIDLLNSPSTFLKFWPYAESRIEWFKMNTSVEPVSLGESNLISYKQPLYEKLRHWNDILAKLENNDILNTVKHYNMKYKLENFLSELLPINEESNFNRSASISALQESDNEWNRSARERESNRSSDVIFAADYNFVFYHLIICPIEFAFSDLEYKNDVDRSLSPLLDAILEIEENFYSKIKMNNRTRYSLEEALNTEYYANYDVMTPKLPVYMKHSNAMKMDRNEFWANLQNIKESDDYTLRPTIMDISLSNTTCLYKQLTQEDDDYYRKQFILQLCFTTNLIRNLISSDETRNFYKSCYLRENPLSDIDFENLDEVNKKRGLNLCSYICDNRVLKFYKIKDPDFYRVIRKLMSSDEKFTTAKIDGFKEFQNFRISKEKIPPPAFDETFKKFTFIKMGNKLINNVWKIPTGLDKIEQEVKKPEGVYEAAQAKWESKISSETSGGEAKDEIIRQWQTLRFLRSRYLFDFDKVNEKTGVDGLFEEPRKVEALDDSFKEKLLYKINQEHRKKLQDAREYKIGKERKKRALEEEASFPEREQKIKSQRINSASQTEGDELKSEQTQPKGEISEENTKIKSSEVSSQDPDSGVAGEFAPQNTTAQLENPKTEDNNAATSNISNGSSTQDMK
notes: Hpr1, THO complex component, S. cerevisiae; End of the tag read from the name; also called THO complex component Hpr1; source: S. cerevisiae BY4741/2-derived tagged strain, in cryo-ground cell lysate; not shown: mNeonGreen (mNG), C-terminal, kept
B2: Mft1, mNG-tagged (natural protein, S. cerevisiae, UniProt P33441 1-392, looked up)
chain: MPLSQKQIDQVRTKVHYSEVDTPFNKYLDILGKVTKLTGSIINGTLSNDDSKIEKLTEQNISQLKESAHLRFLDLQSSIDTKKVADENWETCQQETLAKLENLKDKLPDIKSIHSKLLLRIGKLQGLYDSVQVINREVEGLSEGRTSLVVTRAEWEKELGTDLVKFLIEKNYLKLVDPGLKKDSSEERYRIYDDFSKGPKELESINASMKSDIENVRQEVSSYKEKWLRDAEIFGKITSIFKEELLKRDGLLNEAEGDNIDEDYESDEDEERKERFKRQRSMVEVNTIENVDEKEESDHEYDDQEDEENEEEDDMEVDVEDIKEDNEVDGESSQQEDNSRQGNNEETDKETGVIEEPDAVNDAEEADSDHSSRKLGGTTSDFSASSSVEEVK
notes: Mft1, THO complex subunit, S. cerevisiae; also called THO complex subunit Mft1; source: S. cerevisiae BY4741/2-derived tagged strain, in cryo-ground cell lysate

Target: the molecule itself
Assay: pull-down; mRNP-SiMPull: lysate of cryo-ground yeast cross-linked with 0.2% formaldehyde, PrA-tagged bait pulled down on rabbit IgG Dynabeads at 8°C for 10 min (mTBT16 buffer: 20 mM HEPES-KOH pH 7.4, 12.5 mM KOAc, 2 mM MgCl2, 0.5% Triton X-100, 0.1% Tween 20), eluted by HRV3C protease, captured on a slide by mNG, HA or Yra1 antibody, TIRF imaging; spot counts and photobleaching steps, no-PrA control subtracted …

Protein | stoichiometry N
B1 | 2
B2 | 2
